# In paper PMC6107515, “Factor H binding proteins protect division septa on encapsulated Streptococcus pneumoniae against complement C3b deposition and amplification” (Nature Communications, 2018):
# Assays:
# [1] = biological target: T1, human complement Factor H (human, UniProt P08603 19-1231); experiment: SPR; Biacore X100; FH coupled to a CM4 chip, recombinant PspCs injected at five increasing concentrations (kinetic titration); PBS-P+ buffer; fitted with a 1:1 binding model; settings: both partners purified
# T1 construct: complement factor H, human, purified; also called FH
# T1 sequence (P08603 19-1231): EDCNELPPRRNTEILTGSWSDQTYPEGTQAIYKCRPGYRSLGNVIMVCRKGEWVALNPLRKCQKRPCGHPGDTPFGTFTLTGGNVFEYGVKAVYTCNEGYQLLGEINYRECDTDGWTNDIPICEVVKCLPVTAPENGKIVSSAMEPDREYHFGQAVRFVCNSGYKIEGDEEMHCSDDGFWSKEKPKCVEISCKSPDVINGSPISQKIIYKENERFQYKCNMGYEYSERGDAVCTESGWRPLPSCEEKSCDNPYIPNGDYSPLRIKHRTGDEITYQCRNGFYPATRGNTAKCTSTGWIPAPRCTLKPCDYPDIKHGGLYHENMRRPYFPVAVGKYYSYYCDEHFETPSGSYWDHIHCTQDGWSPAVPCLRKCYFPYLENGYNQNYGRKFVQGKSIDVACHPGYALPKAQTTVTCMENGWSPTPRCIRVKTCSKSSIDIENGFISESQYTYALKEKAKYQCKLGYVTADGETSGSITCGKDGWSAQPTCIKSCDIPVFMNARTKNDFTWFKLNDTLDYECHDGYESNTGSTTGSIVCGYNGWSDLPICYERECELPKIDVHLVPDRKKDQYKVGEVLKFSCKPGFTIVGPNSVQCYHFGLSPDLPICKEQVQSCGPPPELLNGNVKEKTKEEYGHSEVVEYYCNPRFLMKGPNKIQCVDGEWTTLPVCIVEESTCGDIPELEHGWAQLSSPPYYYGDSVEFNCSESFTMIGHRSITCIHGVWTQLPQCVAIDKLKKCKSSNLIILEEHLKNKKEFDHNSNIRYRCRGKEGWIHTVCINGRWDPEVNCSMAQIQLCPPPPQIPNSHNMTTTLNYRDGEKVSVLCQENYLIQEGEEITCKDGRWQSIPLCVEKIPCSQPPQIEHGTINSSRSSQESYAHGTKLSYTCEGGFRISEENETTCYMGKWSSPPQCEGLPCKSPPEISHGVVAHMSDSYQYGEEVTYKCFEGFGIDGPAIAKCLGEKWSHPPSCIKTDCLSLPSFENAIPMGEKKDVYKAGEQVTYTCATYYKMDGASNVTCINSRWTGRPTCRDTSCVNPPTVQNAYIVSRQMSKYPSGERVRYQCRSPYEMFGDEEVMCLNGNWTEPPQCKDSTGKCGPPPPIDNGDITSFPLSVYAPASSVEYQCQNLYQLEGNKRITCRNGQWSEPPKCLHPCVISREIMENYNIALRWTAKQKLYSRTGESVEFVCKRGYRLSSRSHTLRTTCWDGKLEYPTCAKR
# [2] = biological target: T1, human complement Factor H; experiment: as above; settings: both partners purified; remark: listed apart in the source
Binder,Kd [1],Kd [2],koff [2],kon [2]
recombinant PspC1 (BHN418) (domain or fragment) EEVGGRNTPTVTSSGQDISKKYADEVESHLKKILSEIQTQLDRKRHTKTVALINELQDIKKTYLYNLNVLKEKSELPSKIKAKLEVAFDQFKKDTLKPGEKVAEAEKKVAEAKKKAEDQKEEDRRNYPTNTYKTLELEIAESDVKVKEAELELVNEEAKPGNEEKIKKAKAKVESEKAEAIRLEEIKTDREEAKRKADAKLKEAVENNAATSEQGEPKRRVKRGVLGEPATPDKKENDAKSSDSSVGEETLPSPSLKPEKKVAEAEKKAKDQKEEDRRNYPTNTYKTLELEIAESDVKVKEAELELVKEEAKESRNEEKVKQAKAKVESKKAEATRLEKIKTDRKKAEEAKRKAAEEDKVKEKPAEQPQPAPAPQPEKPAPKPEKPAPAPKPENPAEQPKAEKPADQQAEEDYARRSEEEYNRLTQQQPPKTEKPAQPSTPKTGWKQENGMWYFYNTDGSMA,0.0908 nM,0.09 nM,6.2e-05 s⁻¹,690000 M⁻¹ s⁻¹
"recombinant PspC2 (BHN418) (domain or fragment, PspC2 of Streptococcus pneumoniae BHN418, lacking the LPxTG motif and the first 37 aa (signal peptide); whole precursor given in Supplementary Data 1; cloned NdeI/XhoI in pET28a; source: E. coli Rosetta (DE3), purified (Ni-NTA, thrombin, Ni-NTA, Superdex 75); not shown: 6xHis, N-terminal, cleaved) TEKEGSTQAATSFNRGNGSQAEQRGELDLERDKAMKAVSEYVGKMVRDAYVKSDRKRHKNTVALVNQLGNIKNRYLNEIVHSTSKSQLQELMMKSQSEVDEAVSKFEKDSFSSSSSGSSTKPETPQPENPEHQKPTTPSPDTKPSPQPEGKKPSVPDINQEKEKAKLAVVTYMSKILDDIQKHHLQKEKHRQIVALIKELDELKKQALSEIDNVNTKVEIENTVHKIFADMDAVVTKFKKGLTQDTPKEPGNKKPSAPKPGMQPSPQPEVKPQLEKPKPEVKPQPEKPKPEVKPQPEKPKPEVKPQPEKPKPEVKPQPEKPKPEVKPQPEKPKPEVKPQPEKPKPEVKPQPEKPKPEVKPQPEKPKPEVKPQPEKPKPEVKPQPEKPKPEVKPQPEKPKPEVKPQPEKPKPEVKPQPEKPKPEVKPQPEKPKPEVKPQPEKPKPEVKPQPEKPKPEVKPQPEKPKPEVKPQPEKPKPEVKPQPEKPKPDNSKPQADDKKPSTTNNLSKDKQPSNQASTNEKATNKPKK",–,0.013 nM,5.5e-05 s⁻¹,4.1e+06 M⁻¹ s⁻¹
